Data reported in publication PMC12340889.
pKd: −log10 of the molar value.

What was measured:
[1] = tested on: DriD WT (Caulobacter crescentus); test: fluorescence polarization; settings: FP: 25 mM Tris-HCl pH 7.5, 150 mM NaCl, 2.5% glycerol, 100 uM ssDNA, temperature not stated; cryo-EM: 20 mM Tris-HCl pH 8, 5 mM MgCl2, 100 mM NaCl, 1 mM bME …
[2] = tested on: DriD(G18K-A20K) (Caulobacter crescentus); test: fluorescence polarization; settings: FP: 25 mM Tris-HCl pH 7.5, 150 mM NaCl, 2.5% glycerol, 100 uM ssDNA, temperature not stated; cryo-EM: 20 mM Tris-HCl pH 8, 5 mM MgCl2, 100 mM NaCl, 1 mM bME …
[3] = biological target: C. crescentus DriD (wild type) (C. crescentus); test: fluorescence polarisation; DriD (WT or mutant) first bound to fluoresceinated target DNA with 100 μM ssDNA, then increasing αCTD titrated in; 25 mM Tris-HCl pH 7.5, 150 mM NaCl, 2.5 % glycerol; apparent Kd; three technical replicates

## ATACGACAGTAACTGTCGTAT (double strand) [F-DriD target DNA]
[1]
  pKd: 8.15
[2]
  pKd: 8.04

## C. crescentus α subunit CTD (α residues 161–248) (domain or fragment)
[3]
  pKd: 4.52
